How the values were obtained:
[1] = target: native Hla in S. aureus 8325-4 supernatants (Staphylococcus aureus 8325-4 (NCTC 8325 …, UniProt Q2G1X0)); test: far-Western, overlay or dot blot; details: one partner purified
HlgC = HlgC (Staphylococcus aureus, strain , UniProt Q07227); test: ELISA; details: both partners purified
Hlb = Hlb (Staphylococcus aureus, strain , UniProt P09978); test: ELISA; details: both partners purified
LukF = LukF (Staphylococcus aureus, strain , UniProt Q5FBD2); test: ELISA; details: both partners purified
LukE = LukE (Staphylococcus aureus, strain , UniProt O54081); test: ELISA; details: both partners purified
HlgA = HlgA (Staphylococcus aureus, strain , UniProt P0A074); test: ELISA; details: both partners purified
HlgB = HlgB (Staphylococcus aureus, strain , UniProt P0A077); test: ELISA; details: both partners purified
LukD = LukD (Staphylococcus aureus, strain , UniProt O54082); test: ELISA; details: both partners purified
Chain of LukD (O54082 27-327): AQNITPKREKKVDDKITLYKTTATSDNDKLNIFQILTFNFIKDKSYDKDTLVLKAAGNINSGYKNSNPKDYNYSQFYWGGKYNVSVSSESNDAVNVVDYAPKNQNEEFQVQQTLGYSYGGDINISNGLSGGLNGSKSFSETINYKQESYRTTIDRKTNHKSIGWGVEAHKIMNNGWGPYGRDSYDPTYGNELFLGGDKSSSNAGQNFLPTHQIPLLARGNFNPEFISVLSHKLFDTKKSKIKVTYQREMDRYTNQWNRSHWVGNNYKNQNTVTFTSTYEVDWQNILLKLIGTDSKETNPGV

Chain of native Hla in S. aureus 8325-4 supernatants (Staphylococcus aureus 8325-4 (Q2G1X0 27-319): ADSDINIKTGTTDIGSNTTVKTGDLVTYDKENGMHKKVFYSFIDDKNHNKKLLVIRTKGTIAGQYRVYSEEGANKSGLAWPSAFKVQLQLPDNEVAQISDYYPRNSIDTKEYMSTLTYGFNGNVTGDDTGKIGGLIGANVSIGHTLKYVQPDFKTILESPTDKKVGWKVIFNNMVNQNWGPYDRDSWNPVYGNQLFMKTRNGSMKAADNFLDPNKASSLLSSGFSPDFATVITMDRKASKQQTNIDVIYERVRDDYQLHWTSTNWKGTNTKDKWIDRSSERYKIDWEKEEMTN
Chain of HlgA (P0A074 30-309): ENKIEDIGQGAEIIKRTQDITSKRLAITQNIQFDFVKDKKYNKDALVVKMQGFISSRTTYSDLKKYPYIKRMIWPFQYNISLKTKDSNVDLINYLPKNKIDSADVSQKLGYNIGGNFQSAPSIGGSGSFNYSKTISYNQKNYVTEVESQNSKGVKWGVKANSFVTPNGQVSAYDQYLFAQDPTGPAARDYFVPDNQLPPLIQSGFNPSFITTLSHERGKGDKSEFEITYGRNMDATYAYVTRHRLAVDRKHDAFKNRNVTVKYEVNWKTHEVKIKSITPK
Chain of HlgB (P0A077 26-325): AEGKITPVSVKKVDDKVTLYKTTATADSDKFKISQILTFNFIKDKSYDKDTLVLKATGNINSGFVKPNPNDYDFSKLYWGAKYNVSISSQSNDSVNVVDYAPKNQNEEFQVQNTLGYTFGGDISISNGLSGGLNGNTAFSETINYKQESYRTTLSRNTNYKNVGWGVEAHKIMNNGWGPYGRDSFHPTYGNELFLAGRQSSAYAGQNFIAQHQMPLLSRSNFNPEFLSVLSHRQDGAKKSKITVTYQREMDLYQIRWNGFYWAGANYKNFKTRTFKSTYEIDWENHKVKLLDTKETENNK
Chain of LukF (P31715 26-323): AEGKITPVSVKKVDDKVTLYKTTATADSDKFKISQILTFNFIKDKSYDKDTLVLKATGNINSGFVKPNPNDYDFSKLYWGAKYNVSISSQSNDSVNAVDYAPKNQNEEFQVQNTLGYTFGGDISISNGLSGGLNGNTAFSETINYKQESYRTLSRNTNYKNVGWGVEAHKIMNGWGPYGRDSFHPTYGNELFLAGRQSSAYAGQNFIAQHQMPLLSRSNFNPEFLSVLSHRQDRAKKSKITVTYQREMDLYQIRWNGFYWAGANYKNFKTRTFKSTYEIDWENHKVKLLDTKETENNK
Chain of HlgC (Q07227 30-315): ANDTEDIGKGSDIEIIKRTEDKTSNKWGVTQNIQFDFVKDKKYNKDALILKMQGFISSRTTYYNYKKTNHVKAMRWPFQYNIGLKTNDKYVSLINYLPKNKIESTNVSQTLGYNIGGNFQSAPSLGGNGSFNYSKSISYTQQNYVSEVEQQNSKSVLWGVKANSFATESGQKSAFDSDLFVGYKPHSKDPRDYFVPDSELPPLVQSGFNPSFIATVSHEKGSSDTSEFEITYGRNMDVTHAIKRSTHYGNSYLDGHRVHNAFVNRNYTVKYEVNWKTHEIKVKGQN
Chain of LukE (O54081 29-314): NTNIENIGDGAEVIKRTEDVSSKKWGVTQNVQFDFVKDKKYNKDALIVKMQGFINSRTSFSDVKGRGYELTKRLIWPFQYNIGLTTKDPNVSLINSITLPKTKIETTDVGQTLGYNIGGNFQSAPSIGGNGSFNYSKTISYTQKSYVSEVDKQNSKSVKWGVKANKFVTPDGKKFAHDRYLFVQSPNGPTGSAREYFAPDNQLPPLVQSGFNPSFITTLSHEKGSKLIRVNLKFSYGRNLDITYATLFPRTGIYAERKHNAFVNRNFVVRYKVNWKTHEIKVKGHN
Chain of Hlb (P09978 35-330): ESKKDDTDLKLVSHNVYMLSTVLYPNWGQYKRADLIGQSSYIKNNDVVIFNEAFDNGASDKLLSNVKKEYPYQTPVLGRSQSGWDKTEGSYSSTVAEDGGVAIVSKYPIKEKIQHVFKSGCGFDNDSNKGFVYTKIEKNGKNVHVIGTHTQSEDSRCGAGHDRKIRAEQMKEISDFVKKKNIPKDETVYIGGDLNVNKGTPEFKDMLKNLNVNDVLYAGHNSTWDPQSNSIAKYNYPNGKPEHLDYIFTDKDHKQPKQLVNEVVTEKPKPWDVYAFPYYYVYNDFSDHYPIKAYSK

B1: YG1 human anti-Hla monoclonal antibody (antibody, V domains shown)
VH: QVQLVQSGAEMQKPGASVKVSCKVTGYALASLSLHWVRQTPGAGLEWLGGLDPGHGETIYAEKLQGRVVMTGDTSTDTAYMQLSSLTSEDTAIYYCASDWLRHGFEFWGQGTTVTVSS
VL: EIVLTQSPATLSVSPGDGATLSCRASQSVSGNLAWYQKKPGQAPRLLIYDTSIRAAGVPPRFSGSGSGTEFTLTISSLQSEDFAVYYCQQYHNLPPLTFGPGTKLEIK
notes: also called YG1 mAb; source: expressed and purified as a full-length human IgG1 antibody
[1]
  binding result: binds
HlgC
  binding result: no binding (tested: 1 μg/ml)
Hlb
  binding result: no binding (tested: 1 μg/ml)
LukF
  binding result: no binding (tested: 1 μg/ml)
LukE
  binding result: no binding (tested: 1 μg/ml)
HlgA
  binding result: no binding (tested: 1 μg/ml)
HlgB
  binding result: no binding (tested: 1 μg/ml)
LukD
  binding result: no binding (tested: 1 μg/ml)
